Results taken from patent publication US20140056890A1 (ONCEMED PHARMACEUTICALS, published 2014).

Target: T1, pYAP (human, UniProt P46937, phosphorylated; site not stated in Example 13 (detected with phospho-YAP1 antibody #4911, Cell Signaling Technology; the anti-pYAP antibody of Examples 5 and 7 is to Ser127))
T1 construct: full length, endogenous; also called phospho-YAP; phospho-YAP1
Test: co-immunoprecipitation: anti-FLAG IP from lysate of transiently transfected HEK-293T cells, Western blot with anti-phospho-YAP1
Procedure: To validate these protein complexes, immunoprecipitates (see method described above) were prepared from HEK-293T cells transiently transfected with FLAG-tagged full-length CADM1, CADM3, PVR, PVRL1, and PVRL3, with CADM3-CD4TM-GFP and LGR5-CD4TM-GFP constructs as internal negative controls. Total cell lysates and the immunoprecipitate eluates were run on 4-12% Tris-Glycine Midi Gels (Life Technologies/Invitrogen, Grand Island, N.Y.) and transferred by iBlot onto PVDF membranes (Life Technologies/Invitrogen).

T1 sequence (P46937 whole entry): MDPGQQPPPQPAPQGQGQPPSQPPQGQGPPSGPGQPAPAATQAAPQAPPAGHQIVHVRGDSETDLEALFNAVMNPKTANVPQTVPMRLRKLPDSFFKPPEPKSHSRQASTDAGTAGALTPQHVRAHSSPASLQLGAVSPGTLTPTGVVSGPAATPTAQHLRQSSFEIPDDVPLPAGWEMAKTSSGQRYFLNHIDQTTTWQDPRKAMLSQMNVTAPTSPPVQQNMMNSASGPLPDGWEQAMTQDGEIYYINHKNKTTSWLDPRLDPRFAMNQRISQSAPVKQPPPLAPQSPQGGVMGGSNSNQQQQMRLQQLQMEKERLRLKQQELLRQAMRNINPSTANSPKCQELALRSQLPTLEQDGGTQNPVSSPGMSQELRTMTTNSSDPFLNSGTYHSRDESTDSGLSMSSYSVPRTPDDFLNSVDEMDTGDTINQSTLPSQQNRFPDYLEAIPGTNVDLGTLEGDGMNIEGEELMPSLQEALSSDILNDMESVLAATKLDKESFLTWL

B1: FLAG-tagged full-length PVR (receptor)
chain: WPPPGTGDVVVQAPTQVPGFLGDSVTLPCYLQVPNMEVTHVSQLTWARHGESGSMAVFHQTQGPSYSESKRLEFVAARLGAELRNASLRMFGLRVEDEGNYTCLFVTFPQGSRSVDIWLRVLAKPQNTAEVQKVQLTGEPVPMARCVSTGGRPPAQITWHSDLGGMPNTSQVPGFLSGTVTVTSLWILVPSSQVDGKNVTCKVEHESFEKPQLLTVNLTVYYPPEVSISGYDNNWYLGQNEATLTCDARSNPEPTGYNWSTTMGPLPPFAVAQGAQLLIRPVDKPINTTLICNVTNALGARQAELTVQVKEGPPSEHSGMSRNAIIFLVLGILVFLILLGIGIYFYWSKCSREVLWHCHLCPSSTEHASASANGHVSYSAVSRENSSSQDPQTEGTR
notes: Bait, transiently expressed in HEK-293T cells and immunoprecipitated from lysates with anti-FLAG agarose; also called Poliovirus receptor; NECL-5
Q: Does B1 bind?
A: no binding
